Experimental data as given in US20050112126A1 (Genentech, published 2005).

target: T1, VEGF (human, UniProt P15692-4 27-191, limits assumed); experiment: competitive phage-ELISA, relative to pY0192
T1 construct: Biotinylated in the KDR-IgG ELISA, amine-coupled to the chip in BIAcore; also called biotinylated VEGF; vascular endothelial growth factor
Experimental: In such an assay, phages were first serially diluted to determine a fractional saturation titer which was then held constant and used to incubate with varying concentrations of VEGF (starting at 200 nM to 0 nM) in solution. The mixture was then transferred onto plate precoated with VEGF (2 μg/mL) and blocked with 5% instant milk, and allowed to equilibrate for 1 hour at room temperature. Thereafter, the phage solution was removed and the remaining bound phages were detected with a solution of rabbit anti-phage antibody mixed with goat anti-rabbit conjugate of horse radish peroxidase. After an hour incubation at room temperature, the plate was developed with a chromogenic substrate, o-phenylenediamine (Sigma). The reaction was stopped with addition of ½ volume of 2.5 M H₂SO₄. Optical density at 492 nm was measured on a spectrophotometric plate reader.
IC50's were determined in a competitive phage-ELISA assay.

T1 sequence (P15692 other isoform, or with tags, fused parts or gaps limits assumed): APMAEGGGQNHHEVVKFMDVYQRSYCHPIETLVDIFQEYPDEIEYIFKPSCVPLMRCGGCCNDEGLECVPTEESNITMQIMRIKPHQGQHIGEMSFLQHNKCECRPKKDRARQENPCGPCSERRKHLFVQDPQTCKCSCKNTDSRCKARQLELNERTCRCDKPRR

Row | Binder | IC50 (mut)/IC50 (wt) [ratio]
1 | pY0192 VH F110A (Fab, V domains shown, Ala-scan variant of pY0192; Fab on phage) VH: EVQLVESGGGLVQPGGSLRLSCAASGYTFTNYGINWVRQAPGKGLEWVGWINTYTGEPTYAADFKRRFTFSLDTSKSTAYLQMNSLRAEDTAVYYCAKYPHYYGSSHWYADVWGQGTL VL: DIQLTQSPSSLSASVGDRVTITCRANEQLSNYLNWYQQKPGKAPKVLIYFTSSLHSGVPSRFSGSGSGTDFTLTISSLQPEDFATYYCQQYSTVPWTFGQGTKVEIKR | 25
2 | pY0192 VH H101A (Fab, V domains shown, Ala-scan variant of pY0192; Fab on phage) VH: EVQLVESGGGLVQPGGSLRLSCAASGYTFTNYGINWVRQAPGKGLEWVGWINTYTGEPTYAADFKRRFTFSLDTSKSTAYLQMNSLRAEDTAVYYCAKYPAYYGSSHWYFDVWGQGTL VL: DIQLTQSPSSLSASVGDRVTITCRANEQLSNYLNWYQQKPGKAPKVLIYFTSSLHSGVPSRFSGSGSGTDFTLTISSLQPEDFATYYCQQYSTVPWTFGQGTKVEIKR | 4
3 | pY0192 VH I34A (Fab, V domains shown, Ala-scan variant of pY0192; Fab on phage) VH: EVQLVESGGGLVQPGGSLRLSCAASGYTFTNYGANWVRQAPGKGLEWVGWINTYTGEPTYAADFKRRFTFSLDTSKSTAYLQMNSLRAEDTAVYYCAKYPHYYGSSHWYFDVWGQGTL VL: DIQLTQSPSSLSASVGDRVTITCRANEQLSNYLNWYQQKPGKAPKVLIYFTSSLHSGVPSRFSGSGSGTDFTLTISSLQPEDFATYYCQQYSTVPWTFGQGTKVEIKR | 6
4 | pY0192 VH S105A (Fab, V domains shown, Ala-scan variant of pY0192; Fab on phage) VH: EVQLVESGGGLVQPGGSLRLSCAASGYTFTNYGINWVRQAPGKGLEWVGWINTYTGEPTYAADFKRRFTFSLDTSKSTAYLQMNSLRAEDTAVYYCAKYPHYYGASHWYFDVWGQGTL VL: DIQLTQSPSSLSASVGDRVTITCRANEQLSNYLNWYQQKPGKAPKVLIYFTSSLHSGVPSRFSGSGSGTDFTLTISSLQPEDFATYYCQQYSTVPWTFGQGTKVEIKR | 1
5 | pY0192 VH P100A (Fab, V domains shown, Ala-scan variant of pY0192; Fab on phage; also called P1OOA) VH: EVQLVESGGGLVQPGGSLRLSCAASGYTFTNYGINWVRQAPGKGLEWVGWINTYTGEPTYAADFKRRFTFSLDTSKSTAYLQMNSLRAEDTAVYYCAKYAHYYGSSHWYFDVWGQGTL VL: DIQLTQSPSSLSASVGDRVTITCRANEQLSNYLNWYQQKPGKAPKVLIYFTSSLHSGVPSRFSGSGSGTDFTLTISSLQPEDFATYYCQQYSTVPWTFGQGTKVEIKR | 38
6 | pY0192 VH N35A (Fab, V domains shown, Ala-scan variant of pY0192; Fab on phage) VH: EVQLVESGGGLVQPGGSLRLSCAASGYTFTNYGIAWVRQAPGKGLEWVGWINTYTGEPTYAADFKRRFTFSLDTSKSTAYLQMNSLRAEDTAVYYCAKYPHYYGSSHWYFDVWGQGTL VL: DIQLTQSPSSLSASVGDRVTITCRANEQLSNYLNWYQQKPGKAPKVLIYFTSSLHSGVPSRFSGSGSGTDFTLTISSLQPEDFATYYCQQYSTVPWTFGQGTKVEIKR | 66
7 | pY0192 VH K65A (Fab, V domains shown, Ala-scan variant of pY0192; Fab on phage) VH: EVQLVESGGGLVQPGGSLRLSCAASGYTFTNYGINWVRQAPGKGLEWVGWINTYTGEPTYAADFARRFTFSLDTSKSTAYLQMNSLRAEDTAVYYCAKYPHYYGSSHWYFDVWGQGTL VL: DIQLTQSPSSLSASVGDRVTITCRANEQLSNYLNWYQQKPGKAPKVLIYFTSSLHSGVPSRFSGSGSGTDFTLTISSLQPEDFATYYCQQYSTVPWTFGQGTKVEIKR | 1
8 | pY0192 VH G33A (Fab, V domains shown, Ala-scan variant of pY0192; Fab on phage) VH: EVQLVESGGGLVQPGGSLRLSCAASGYTFTNYAINWVRQAPGKGLEWVGWINTYTGEPTYAADFKRRFTFSLDTSKSTAYLQMNSLRAEDTAVYYCAKYPHYYGSSHWYFDVWGQGTL VL: DIQLTQSPSSLSASVGDRVTITCRANEQLSNYLNWYQQKPGKAPKVLIYFTSSLHSGVPSRFSGSGSGTDFTLTISSLQPEDFATYYCQQYSTVPWTFGQGTKVEIKR | 6
9 | pY0192 VH H107A (Fab, V domains shown, Ala-scan variant of pY0192; Fab on phage) VH: EVQLVESGGGLVQPGGSLRLSCAASGYTFTNYGINWVRQAPGKGLEWVGWINTYTGEPTYAADFKRRFTFSLDTSKSTAYLQMNSLRAEDTAVYYCAKYPHYYGSSAWYFDVWGQGTL VL: DIQLTQSPSSLSASVGDRVTITCRANEQLSNYLNWYQQKPGKAPKVLIYFTSSLHSGVPSRFSGSGSGTDFTLTISSLQPEDFATYYCQQYSTVPWTFGQGTKVEIKR | 2
10 | pY0192 VH G26A (Fab, V domains shown, Ala-scan variant of pY0192; Fab on phage) VH: EVQLVESGGGLVQPGGSLRLSCAASAYTFTNYGINWVRQAPGKGLEWVGWINTYTGEPTYAADFKRRFTFSLDTSKSTAYLQMNSLRAEDTAVYYCAKYPHYYGSSHWYFDVWGQGTL VL: DIQLTQSPSSLSASVGDRVTITCRANEQLSNYLNWYQQKPGKAPKVLIYFTSSLHSGVPSRFSGSGSGTDFTLTISSLQPEDFATYYCQQYSTVPWTFGQGTKVEIKR | 2
11 | pY0192 VH G104A (Fab, V domains shown, Ala-scan variant of pY0192; Fab on phage) VH: EVQLVESGGGLVQPGGSLRLSCAASGYTFTNYGINWVRQAPGKGLEWVGWINTYTGEPTYAADFKRRFTFSLDTSKSTAYLQMNSLRAEDTAVYYCAKYPHYYASSHWYFDVWGQGTL VL: DIQLTQSPSSLSASVGDRVTITCRANEQLSNYLNWYQQKPGKAPKVLIYFTSSLHSGVPSRFSGSGSGTDFTLTISSLQPEDFATYYCQQYSTVPWTFGQGTKVEIKR | 2
12 | pY0192 VH G56A (Fab, V domains shown, Ala-scan variant of pY0192; Fab on phage) VH: EVQLVESGGGLVQPGGSLRLSCAASGYTFTNYGINWVRQAPGKGLEWVGWINTYTAEPTYAADFKRRFTFSLDTSKSTAYLQMNSLRAEDTAVYYCAKYPHYYGSSHWYFDVWGQGTL VL: DIQLTQSPSSLSASVGDRVTITCRANEQLSNYLNWYQQKPGKAPKVLIYFTSSLHSGVPSRFSGSGSGTDFTLTISSLQPEDFATYYCQQYSTVPWTFGQGTKVEIKR | 1
13 | pY0192 VH R66A (Fab, V domains shown, Ala-scan variant of pY0192; Fab on phage) VH: EVQLVESGGGLVQPGGSLRLSCAASGYTFTNYGINWVRQAPGKGLEWVGWINTYTGEPTYAADFKARFTFSLDTSKSTAYLQMNSLRAEDTAVYYCAKYPHYYGSSHWYFDVWGQGTL VL: DIQLTQSPSSLSASVGDRVTITCRANEQLSNYLNWYQQKPGKAPKVLIYFTSSLHSGVPSRFSGSGSGTDFTLTISSLQPEDFATYYCQQYSTVPWTFGQGTKVEIKR | 1
14 | pY0192 VH I51A (Fab, V domains shown, Ala-scan variant of pY0192; Fab on phage) VH: EVQLVESGGGLVQPGGSLRLSCAASGYTFTNYGINWVRQAPGKGLEWVGWANTYTGEPTYAADFKRRFTFSLDTSKSTAYLQMNSLRAEDTAVYYCAKYPHYYGSSHWYFDVWGQGTL VL: DIQLTQSPSSLSASVGDRVTITCRANEQLSNYLNWYQQKPGKAPKVLIYFTSSLHSGVPSRFSGSGSGTDFTLTISSLQPEDFATYYCQQYSTVPWTFGQGTKVEIKR | 4
15 | pY0192 VH P58A (Fab, V domains shown, Ala-scan variant of pY0192; Fab on phage) VH: EVQLVESGGGLVQPGGSLRLSCAASGYTFTNYGINWVRQAPGKGLEWVGWINTYTGEATYAADFKRRFTFSLDTSKSTAYLQMNSLRAEDTAVYYCAKYPHYYGSSHWYFDVWGQGTL VL: DIQLTQSPSSLSASVGDRVTITCRANEQLSNYLNWYQQKPGKAPKVLIYFTSSLHSGVPSRFSGSGSGTDFTLTISSLQPEDFATYYCQQYSTVPWTFGQGTKVEIKR | 1
